Measured values reported in US20100158968A1.

Tests used:
[1] = target: mitogen-activated protein kinase-activated protein kinase 2 (human MK2) (human), P49137; assay: kinase inhibition, radiometric assay; settings: modification not given
[2] = target: PKCδ (h) (protein kinase C) (human), Q05655; assay: cell-based or functional assay
PKCδ (h) (protein kinase C) (human), Q05655, sequence (Q05655 whole entry, stated change not applied): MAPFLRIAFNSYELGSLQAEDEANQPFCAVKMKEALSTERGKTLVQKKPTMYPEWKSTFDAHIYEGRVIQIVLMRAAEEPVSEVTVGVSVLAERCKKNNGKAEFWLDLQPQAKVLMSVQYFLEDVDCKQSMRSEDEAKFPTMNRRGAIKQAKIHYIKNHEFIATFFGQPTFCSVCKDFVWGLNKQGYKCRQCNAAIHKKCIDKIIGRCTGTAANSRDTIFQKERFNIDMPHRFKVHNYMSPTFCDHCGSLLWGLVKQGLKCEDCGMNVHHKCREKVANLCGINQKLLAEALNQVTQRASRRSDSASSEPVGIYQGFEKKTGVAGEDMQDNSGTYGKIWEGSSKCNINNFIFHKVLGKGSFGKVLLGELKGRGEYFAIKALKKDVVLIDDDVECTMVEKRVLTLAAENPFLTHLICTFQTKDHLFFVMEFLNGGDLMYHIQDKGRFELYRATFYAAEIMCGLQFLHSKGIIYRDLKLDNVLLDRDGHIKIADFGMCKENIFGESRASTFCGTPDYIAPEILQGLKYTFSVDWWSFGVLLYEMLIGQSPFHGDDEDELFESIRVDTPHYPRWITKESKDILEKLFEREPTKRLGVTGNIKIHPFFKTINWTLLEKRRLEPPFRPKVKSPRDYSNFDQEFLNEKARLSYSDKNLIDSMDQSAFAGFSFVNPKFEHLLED

mitogen-activated protein kinase-activated protein kinase 2 (human MK2) (human), P49137, sequence (P49137 46-400): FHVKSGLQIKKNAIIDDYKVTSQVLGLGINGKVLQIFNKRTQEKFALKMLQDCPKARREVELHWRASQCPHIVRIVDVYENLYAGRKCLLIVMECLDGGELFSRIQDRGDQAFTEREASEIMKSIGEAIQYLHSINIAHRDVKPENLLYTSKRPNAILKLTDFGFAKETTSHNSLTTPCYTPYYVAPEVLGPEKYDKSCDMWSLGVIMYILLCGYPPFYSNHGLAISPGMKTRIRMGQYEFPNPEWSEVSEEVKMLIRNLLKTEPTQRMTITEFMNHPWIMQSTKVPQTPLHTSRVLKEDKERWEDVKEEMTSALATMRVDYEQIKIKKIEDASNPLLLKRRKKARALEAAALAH

**Q.** How did the IC50 [1] turn out when YARAAARQARAKALARQLAVA was run?
**A.** Its IC50 is 28.4 µM.

**Q.** YARAAARQARAKALNRQLAVA was tested. Which IC50 [1] did it give?
**A.** The IC50 was 18.9 µM.

**Q.** For WLRRIKAWLRRIKALNRQLGVAA, which IC50 [1] is on record?
**A.** The IC50 was 0.737 µM.

**Q.** What about the Kinase Activity, peptide at 30 µM, radiometric assay [2] of the same binder?
**A.** Its Kinase Activity, peptide at 30 µM, radiometric assay is 11%.

**Q.** FAKLAARLYRKALARQLGVAA was tested. Which IC50 [1] did it give?
**A.** Its IC50 is 1.77 µM.

**Q.** Which Kinase Activity, peptide at 100 µM, radiometric assay [2] does the source give for FAKLAARLYRLARQLGVAA here?
**A.** Its Kinase Activity, peptide at 100 µM, radiometric assay is 40%.

**Q.** KAFAKLAARLYRLARQLGVAA was tested. Which Kinase Activity, peptide at 100 µM, radiometric assay [2] did it give?
**A.** Its Kinase Activity, peptide at 100 µM, radiometric assay is 24%.

**Q.** How did the Kinase Activity, peptide at 300 µM, radiometric assay [2] turn out when YARAAARQARALARQLGVAA was run?
**A.** Its Kinase Activity, peptide at 300 µM, radiometric assay is 101%.

**Q.** How did the Kinase Activity, peptide at 300 µM, radiometric assay [2] turn out when YARAAARQARALNRQLGVAA was run?
**A.** The Kinase Activity, peptide at 300 µM, radiometric assay was 105%.
